What was measured:
rhesus CD11a [1] = target: T1, rhesus CD11a (rhesus, UniProt H9Z8N3 26-1169); assay: rhesus PBL binding
T1 construct: whole, on cells; On rhesus peripheral blood lymphocytes or leukocytes; also called rhCD11a
T1 sequence: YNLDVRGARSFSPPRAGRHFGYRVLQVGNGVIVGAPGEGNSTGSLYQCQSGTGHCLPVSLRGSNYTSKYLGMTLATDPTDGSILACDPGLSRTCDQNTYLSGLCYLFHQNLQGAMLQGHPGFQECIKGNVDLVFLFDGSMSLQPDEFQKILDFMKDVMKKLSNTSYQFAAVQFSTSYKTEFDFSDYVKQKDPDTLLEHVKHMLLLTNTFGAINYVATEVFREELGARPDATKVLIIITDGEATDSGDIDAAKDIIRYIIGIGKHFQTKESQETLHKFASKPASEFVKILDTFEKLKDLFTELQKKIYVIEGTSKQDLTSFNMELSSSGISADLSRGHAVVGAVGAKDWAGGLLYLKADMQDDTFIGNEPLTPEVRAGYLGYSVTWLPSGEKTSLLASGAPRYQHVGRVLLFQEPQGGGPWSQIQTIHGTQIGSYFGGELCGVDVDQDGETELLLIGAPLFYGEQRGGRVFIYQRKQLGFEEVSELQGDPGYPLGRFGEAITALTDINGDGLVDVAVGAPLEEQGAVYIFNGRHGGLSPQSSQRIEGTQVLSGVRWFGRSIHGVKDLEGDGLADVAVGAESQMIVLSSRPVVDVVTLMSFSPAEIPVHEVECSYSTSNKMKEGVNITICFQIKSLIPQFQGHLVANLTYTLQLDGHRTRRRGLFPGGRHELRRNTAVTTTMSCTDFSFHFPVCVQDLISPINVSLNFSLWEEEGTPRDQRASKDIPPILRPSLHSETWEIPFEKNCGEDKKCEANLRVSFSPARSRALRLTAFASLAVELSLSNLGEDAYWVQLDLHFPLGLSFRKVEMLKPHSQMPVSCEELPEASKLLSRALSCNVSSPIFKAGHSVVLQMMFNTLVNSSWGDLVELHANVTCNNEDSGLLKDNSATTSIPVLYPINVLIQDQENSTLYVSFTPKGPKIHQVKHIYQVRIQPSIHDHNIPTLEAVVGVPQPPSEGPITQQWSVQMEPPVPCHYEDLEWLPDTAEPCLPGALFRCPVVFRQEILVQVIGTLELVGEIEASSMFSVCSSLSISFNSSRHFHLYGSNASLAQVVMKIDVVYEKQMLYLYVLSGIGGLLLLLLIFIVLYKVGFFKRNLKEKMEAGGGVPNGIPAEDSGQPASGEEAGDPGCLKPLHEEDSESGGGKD

human CD11a [2] = target: T2, human CD11a (human, UniProt P20701 26-1170); assay: FACScan, Jurkat cells
T2 construct: whole, on cells; On Jurkat T-cells or human peripheral blood mononuclear cells, as part of LFA-1; also called CD11a on Jurkat cells; alpha subunit of LFA-1
Experimental: (§1) Aliquots of 10⁶ Jurkat T-cells were incubated with serial dilutions of humanized and control antibodies in PBS-0.1% BSA-10 mM sodium azide for 45 min at 4° C. The cells were washed and then incubated in fluorescein-conjugated goat anti-human F(ab′)₂ (Organon Teknika, Westchester, Pa.) for 45 min at 4° C. Cells were washed and analysed on a FACScan (Becton Dickinson, Mountain View, Calif.). 8×10³ cells were acquired by list mode and gated by forward light scatter versus side light scatter, thereby excluding dead cells and debris.
Target sequence in this assay (P20701 26-1170): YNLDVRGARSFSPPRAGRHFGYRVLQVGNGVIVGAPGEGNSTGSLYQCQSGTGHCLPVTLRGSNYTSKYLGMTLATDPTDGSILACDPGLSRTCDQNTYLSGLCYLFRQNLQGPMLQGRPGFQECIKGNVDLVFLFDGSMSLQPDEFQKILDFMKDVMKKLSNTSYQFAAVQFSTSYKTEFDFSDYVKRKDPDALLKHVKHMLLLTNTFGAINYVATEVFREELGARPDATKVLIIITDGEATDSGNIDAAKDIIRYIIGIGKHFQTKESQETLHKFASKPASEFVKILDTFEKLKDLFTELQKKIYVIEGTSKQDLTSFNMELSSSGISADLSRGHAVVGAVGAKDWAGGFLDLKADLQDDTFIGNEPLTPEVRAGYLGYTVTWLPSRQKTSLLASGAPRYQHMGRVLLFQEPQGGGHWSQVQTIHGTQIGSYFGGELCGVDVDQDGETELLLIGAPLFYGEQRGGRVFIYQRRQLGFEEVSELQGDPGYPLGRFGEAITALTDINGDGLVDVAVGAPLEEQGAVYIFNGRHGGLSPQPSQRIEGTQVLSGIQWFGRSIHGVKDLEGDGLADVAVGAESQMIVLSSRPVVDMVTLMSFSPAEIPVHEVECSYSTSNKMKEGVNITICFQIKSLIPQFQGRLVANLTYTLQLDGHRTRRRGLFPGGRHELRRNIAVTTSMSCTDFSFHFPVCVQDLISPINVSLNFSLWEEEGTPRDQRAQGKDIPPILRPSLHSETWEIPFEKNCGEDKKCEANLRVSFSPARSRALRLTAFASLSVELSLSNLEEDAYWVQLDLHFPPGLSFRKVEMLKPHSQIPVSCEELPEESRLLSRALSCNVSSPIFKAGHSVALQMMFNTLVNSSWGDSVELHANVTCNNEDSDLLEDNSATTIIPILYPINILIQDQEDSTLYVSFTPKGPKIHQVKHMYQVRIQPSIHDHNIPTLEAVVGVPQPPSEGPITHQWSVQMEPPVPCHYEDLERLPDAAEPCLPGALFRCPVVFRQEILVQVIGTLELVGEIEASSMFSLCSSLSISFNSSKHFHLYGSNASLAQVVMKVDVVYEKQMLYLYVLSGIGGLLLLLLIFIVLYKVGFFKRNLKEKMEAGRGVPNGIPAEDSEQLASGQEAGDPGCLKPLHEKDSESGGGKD

human CD11a [3] = target: T2, human CD11a; assay: FACScan, Jurkat cells; remark: listed apart in the source
In short: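 Flow-cytometric binding to 10⁶ Jurkat T-cells with serially diluted humanized antibodies (including CDR alanine-scan mutants of HuIgG1), 45 min at 4 °C in PBS-0.1% BSA-10 mM sodium azide. Detected with fluorescein anti-human F(ab′)₂, 45 min at 4 °C; 8×10³ scatter-gated live cells acquired.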

human CD11a [4] = target: T2, human CD11a; assay: FACScan, Jurkat cells; remark: listed apart in the source
Experimental: as §1
To determine which CDR residues were involved in binding to human CD11a an alanine-scan (Cunningham et al., Science 244:1081 (1989)) was performed on the CDR residues of HuIgG1. Each mutant was tested for binding to CD11a on Jurkat cells. In the light chain only CDR-L3 contributes to binding.

human CD11a [5] = target: T2, human CD11a; assay: cell-based or functional assay
human CD11a [6] = target: T2, human CD11a; assay: cell-based or functional assay; remark: listed apart in the source
human CD11a [7] = target: T2, human CD11a; assay: not stated (summary of the Example)
rhesus CD11a [8] = target: T1, rhesus CD11a; assay: binding to rhesus CD11a compared with human CD11a
rhesus CD11a [9] = target: T1, rhesus CD11a; assay: binding to rhesus peripheral blood lymphocytes
human CD11a [10] = target: T2, human CD11a; assay: saturation binding, human lymphocytes, donor 1; Kd(app)
Experimental: (§2) Radiolabeled antibodies were prepared using Iodo-Gen (Pierce, Rockford, Ill.) according to the manufacturer's instructions. 50 μg of antibody and 1 mCi¹²⁵I (DuPont, Wilmington, Del.) were added to each tube and incubated for 15 min at 25° C. Radiolabeled proteins were purified from the remaining free ¹²⁵I using PD-10 columns (Pharmacia, Uppsala, Sweden) equilibrated in Hank's Balanced Salt Solution (HBSS, Life Technologies, Grand Island, N.Y.) containing 0.2% gelatin.
(§3) Antibody affinities were determined by saturation binding using either peripheral blood mononuclear cells (murine MHM24 and HuIgG1) or rhesus leukocytes (MHM23, RhIgG1). In each assay, a radiolabeled antibody was serially diluted in HBSS-0.2% gelatin in quadruplicate. Nonspecific binding was determined by the addition of 500 nM final concentration of homologous unlabeled antibody in duplicate through the serial dilution. Human lymphocytes or rhesus leukocytes were added to the plates in a volume of 170 μl per well. Plates were incubated for 2 hr at room temperature on an orbital plate shaker. After incubation, cells were harvested using a SKATRON™ cell harvester (Lier, Norway) and washed 10 times with PBS containing 0.25% gelatin and 0.1% sodium azide. Samples were then counted for 1 min in an LBK Wallac GammaMaster gamma counter (Gaithersburg, Md.). […]

human CD11a [11] = target: T2, human CD11a; assay: saturation binding, human lymphocytes, donor 2; Kd(app)
Experimental: as §2, §3

human CD11a [12] = target: T2, human CD11a; assay: saturation binding, 125I-antibody, human lymphocytes; Kd(app)
Experimental: as §2, §3

Var.EC50/HuIgG1 EC50 (rhesus CD11a [1]): 1 ratio
EC50 F(ab)/EC50 F(ab)-2 (human CD11a [2]): 0.004 ratio
EC50 (human CD11a [3]): 42 pM
Var.EC50/HuIgG1 EC50 (human CD11a [4]): 1 ratio
IC50, blocking of cell adhesion, Jurkat: HuK (human CD11a [5]): 130 pM
IC50, human mixed lymphocyte response (human CD11a [6]): 380 pM
Kd (human CD11a [7]): 200 pM
fold reduction in binding against human CD11a (rhesus CD11a [8]): ~1000 fold
EC50 (rhesus CD11a [9]): 45600 pM
Kd (human CD11a [10]): 110 pM
Kd (human CD11a [11]): 180 pM
Kd (human CD11a [12]): 150 pM
B1: humanized MHM24 IgG1 (antibody, V domains shown)
VH: EVQLVESGGGLVQPGGSLRLSCAASGYSFTGHWMNWVRQAPGKGLEWVGMIHPSDSETRYNQKFKDRFTISVDKSKNTLYLQMNSLRAEDTAVYYCARGIYFYGTTYFDYWGQGTLVTVSS
VL: DIQMTQSPSSLSASVGDRVTITCRASKTISKYLAWYQQKPGKAPKLLIYSGSTLQSGVPSRFSGSGSGTDFTLTISSLQPEDFATYYCQQHNEYPLTFGQGTKVEIKR
notes: F(ab)-8 VL and VH domains fused to human constant light and heavy (IgG1) chains; also called HuIgG1; huMHM24
